Results on four molecules are retold here after patent US20220153831A1 (HEDGEHOG, published 2022).

Where a chain is given by its changes, count along the chain named.

In this assay the target is T1, active human ETA (purified) (human, UniProt P25101 21-427).
T1 construct: also called human endothelin receptor type A
T1 sequence: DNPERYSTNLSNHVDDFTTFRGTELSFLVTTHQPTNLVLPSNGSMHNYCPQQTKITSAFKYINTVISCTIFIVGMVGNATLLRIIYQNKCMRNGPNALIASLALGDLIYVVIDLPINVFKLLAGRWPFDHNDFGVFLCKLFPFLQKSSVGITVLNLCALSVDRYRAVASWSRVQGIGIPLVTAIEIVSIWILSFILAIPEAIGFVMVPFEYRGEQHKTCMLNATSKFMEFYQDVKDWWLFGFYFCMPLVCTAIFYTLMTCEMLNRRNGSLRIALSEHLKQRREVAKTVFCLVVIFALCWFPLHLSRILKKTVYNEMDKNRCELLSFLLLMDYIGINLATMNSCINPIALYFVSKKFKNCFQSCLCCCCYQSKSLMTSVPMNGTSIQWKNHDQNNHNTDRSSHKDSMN
Briefly: ELISA on purified active ETA. The procedure: The cross-binding activities of the developed antibodies to human ETA and mouse ETA were tested by ELISA.

B1: AB9 (antibody, V domains shown)
VH: EVQLVESGAEVRKPGASVKVSCKASGYTFTSSDINWIRQATGQGLEWMGYMNPKNGNTDYAQKFQGRISMTRDSSISTAYMELSSLRSEDTAVYYCAKDRYGSGTYGEGMDVWGPGTLVT
VL: DIVMTQSPSAMSASVGDRVSITCRASQGINNYLAWFQQKPGKVPKRLMDVGSILQSGIPSRFRGRGSGTQFTLTISSLQAEDSGTYFCLQHNTYPLTFGPGTKVEIKR
notes: also called lead antibody
Turning to B1, the binding result is given as “binds”.

B2: FG12 (antibody, V domains shown)
VH: B1 VH with S103L, E108F
VL: B1 VL
notes: also called lead antibody
Regarding B2, the binding result was “binds”.

B3: GG12 (antibody, V domains shown)
VH: B1 VH with T105V, E108F
VL: B1 VL
notes: also called lead antibody
Take B3: the binding result is recorded as “binds”.

B4: EF12 (antibody, V domains shown)
VH: B1 VH with R100P, E108F
VL: B1 VL
notes: also called lead antibody
Consider B4, for which the binding result is given as “binds”.
